Here are results for 2 compounds from PMC3960972 (The Biochemical journal, 2013).

Usually Ki stands for the dissociation constant of the complex between target and ligand, obtained from inhibition or displacement. Low readings indicate higher affinity, high ones lower affinity. A word on the Km: it is the substrate concentration at which the rate is half of its maximum. The kcat is the maximal rate divided by the concentration of active sites. The kcat/Km is the turnover number divided by the Michaelis constant.

The target in one data set is SaFosB (Staphylococcus aureus, UniProt Q5HDM4). The data set can be described thus: HPLC-based enzyme inhibition kinetics, purified enzyme. In kind it is biochemical.
In a further data set the test system is N[C@@H](CS)C(=O)O. The data set can be described thus: HPLC-based steady-state kinetics. In kind it is biochemical, Staphylococcus aureus. The following applies: […] Mn2+; fosfomycin ([…]).

Sequence of SaFosB (Q5HDM4 whole entry): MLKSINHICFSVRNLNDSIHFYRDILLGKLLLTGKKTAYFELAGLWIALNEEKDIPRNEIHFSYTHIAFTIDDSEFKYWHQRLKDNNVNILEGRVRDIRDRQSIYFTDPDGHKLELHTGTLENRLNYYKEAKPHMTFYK

As to `N[C@@H](CO)C(=O)N[C@H]1[C@@H](O[C@@H](CC(=O)O)C(=O)O)O[C@H](CO)[C@@H](O)[C@@H]1O` [BOH], the inhibition constant Ki on SaFosB is 3.9 mM.
Regarding “SaFosB (Staphylococcus aureus subsp. aureus COL)”, in the data set with N[C@@H](CS)C(=O)O, the Km is 13 mM, the catalytic constant (kcat) amounted to 2.3 ± 0.2 s⁻¹ and the catalytic efficiency (kcat/Km) stood at 175 ± 44 M⁻¹ s⁻¹.
